According to PMC3220798 (2011):
pIC50: −log10 of the molar value.

Experiments:
[1] = target: PvdL module 1 (PvdLM1) (Pseudomonas aeruginosa, UniProt Q9I157); experiment: ATP/[…]-pyrophosphate exchange assay; type: biochemical
[2] = target: T1, PvdQ (Pseudomonas aeruginosa, UniProt Q9I194); experiment: co-crystal structure; type: biochemical
[3] = target: T1, PvdQ; experiment: crystal structure, co-purified ligand; type: binding
[4] = system: CCCCCCCCCCCC(=O)Oc1ccc([N+](=O)[O-])cc1; experiment: purified protein
[5] = system: CCCCCCCCCCCC(=O)Oc1ccc2c(C)cc(=O)oc2c1; experiment: purified protein
[6] = system: CCCCCCCCCCCCCC(=O)Oc1ccc([N+](=O)[O-])cc1; experiment: purified protein; conditions: myristate bound to Serβ[…]

T1 sequence (Q9I194 24-193): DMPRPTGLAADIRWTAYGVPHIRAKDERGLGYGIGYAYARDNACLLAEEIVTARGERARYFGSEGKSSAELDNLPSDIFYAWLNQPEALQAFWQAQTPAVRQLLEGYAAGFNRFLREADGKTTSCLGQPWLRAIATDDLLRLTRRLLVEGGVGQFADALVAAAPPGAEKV
T1 sequence (Q9I194 217-762): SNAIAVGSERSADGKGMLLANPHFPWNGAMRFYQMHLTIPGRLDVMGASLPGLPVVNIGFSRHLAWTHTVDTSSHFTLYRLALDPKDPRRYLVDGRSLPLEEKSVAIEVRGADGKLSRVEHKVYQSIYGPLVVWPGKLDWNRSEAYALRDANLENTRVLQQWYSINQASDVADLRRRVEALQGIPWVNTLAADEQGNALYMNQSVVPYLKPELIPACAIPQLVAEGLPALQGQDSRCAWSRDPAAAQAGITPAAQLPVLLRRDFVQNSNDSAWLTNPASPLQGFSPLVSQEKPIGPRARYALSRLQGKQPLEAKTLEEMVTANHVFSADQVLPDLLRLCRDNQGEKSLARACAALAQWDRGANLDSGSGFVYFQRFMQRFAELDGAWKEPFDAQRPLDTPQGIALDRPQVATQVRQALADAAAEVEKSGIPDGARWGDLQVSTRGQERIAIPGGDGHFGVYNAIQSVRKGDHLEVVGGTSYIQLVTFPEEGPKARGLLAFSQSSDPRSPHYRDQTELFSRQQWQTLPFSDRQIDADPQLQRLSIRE

Compound: CCCCCCCCCCCCCC(=O)O [C14, myristate]
- CPM (×10^3) ^a [1]: 160.0 ± 14.1 CPM (×10^3)

Compound: O=c1onc2n1-c1cc(Br)ccc1OC2 [compound 922, 4H-8-Bromo-1,2,4-oxadiazolo[3,4-d]benz[b][1,4]oxazin-1-one]
- pIC50 [2]: 3.84

Compound: CCCCCCCC(=O)O [octanoate]
- crystal structure, co-purified ligand [3]: co-purifying octanoate molecule bound non-covalently in the fatty acid binding pocket

Compound: PvdQ (Pseudomonas aeruginosa PAO1)
- Km [4]: 11400 µM
- kcat [4]: 1.99 s⁻¹
- kcat/Km [4]: 175 M⁻¹ s⁻¹
- Km [5]: 750 µM
- kcat [5]: 1.24 s⁻¹
- kcat/Km [5]: 1660 M⁻¹ s⁻¹
- Km [6]: 1400 µM
- kcat [6]: 0.74 s⁻¹
- kcat/Km [6]: 521 M⁻¹ s⁻¹
